Measurements: PMC4912634

Biological target: tubulin heterodimer (porcine/bovine brain tubulin) (not stated (porcine or bovine brain)) (UniProt Q6B856)
Experiment: ITC; PN2-3 proteins/peptides titrated into tubulin in the cell; 15 °C; 1xBRB80 (80 mM PIPES-K, 1 mM MgCl2, 1 mM EGTA, pH 6.8); one set of binding sites model; tubulin 9 μM for wild type and mutant PN2-3

KQPFLKRGEGLARFTNAKSKFQK [PN2-3C peptide (PN2-3's C-terminus, aa 372-394 of CPAP)]
Kd: 4.8 µM
